From PMC9974095, “TP63 gain-of-function mutations cause premature ovarian insufficiency by inducing oocyte apoptosis” (The Journal of Clinical Investigation, 2023)
Where “and” joins values, the source holds several entries; their conditions need not be identical. Identical values can stand only once.

Target: the molecule itself
Assay: native gel or EMSA; BN-PAGE (NativePAGE 3%-12% Bis-Tris) of lysates of transfected SAOS-2 cells treated with 10 uM MG132 for 12 h; blot with anti-p63

Protein | stoichiometry N
mouse p63ΔTID (domain or fragment, UniProt O88898-1 1-609, looked up, mouse p63 (TAp63α) without the TID; the mouse allele of the same name carries c.1828_1829insGA (p.F610*, NM_001127259.1), a stop codon prior to the TID; also called mutant p63ΔTID) MNFETSRCATLQYCPDPYIQRFIETPAHFSWKESYYRSAMSQSTQTSEFLSPEVFQHIWDFLEQPICSVQPIELNFVDEPSENGATNKIEISMDCIRMQDSDLSDPMWPQYTNLGLLNSMDQQIQNGSSSTSPYNTDHAQNSVTAPSPYAQPSSTFDALSPSPAIPSNTDYPGPHSFDVSFQQSSTAKSATWTYSTELKKLYCQIAKTCPIQIKVMTPPPQGAVIRAMPVYKKAEHVTEVVKRCPNHELSREFNEGQIAPPSHLIRVEGNSHAQYVEDPITGRQSVLVPYEPPQVGTEFTTVLYNFMCNSSCVGGMNRRPILIIVTLETRDGQVLGRRCFEARICACPGRDRKADEDSIRKQQVSDSAKNGDGTKRPFRQNTHGIQMTSIKKRRSPDDELLYLPVRGRETYEMLLKIKESLELMQYLPQHTIETYRQQQQQQHQHLLQKQTSMQSQSSYGNSSPPLNKMNSMNKLPSVSQLINPQQRNALTPTTMPEGMGANIPMMGTHMPMAGDMNGLSPTQALPPPLSMPSTSHCTPPPPYPTDCSIVSFLARLGCSSCLDYFTTQGLTTIYQIEHYSMDDLASLKIPEQFRHAIWKGILDHRQLHD | 4
TAp63α p.R594* (domain or fragment, human, UniProt Q9H3D4-1 1-593, looked up, human TAp63α with the nonsense variant p.R594* (stop at codon 594, in the SAM domain; truncates the protein prior to the TID), numbered on NM_003722.5; Nonsense variant found in a patient with POI; lacks the TID; source: SAOS-2, transfected, MG132-treated, in lysate) MNFETSRCATLQYCPDPYIQRFVETPAHFSWKESYYRSTMSQSTQTNEFLSPEVFQHIWDFLEQPICSVQPIDLNFVDEPSEDGATNKIEISMDCIRMQDSDLSDPMWPQYTNLGLLNSMDQQIQNGSSSTSPYNTDHAQNSVTAPSPYAQPSSTFDALSPSPAIPSNTDYPGPHSFDVSFQQSSTAKSATWTYSTELKKLYCQIAKTCPIQIKVMTPPPQGAVIRAMPVYKKAEHVTEVVKRCPNHELSREFNEGQIAPPSHLIRVEGNSHAQYVEDPITGRQSVLVPYEPPQVGTEFTTVLYNFMCNSSCVGGMNRRPILIIVTLETRDGQVLGRRCFEARICACPGRDRKADEDSIRKQQVSDSTKNGDGTKRPFRQNTHGIQMTSIKKRRSPDDELLYLPVRGRETYEMLLKIKESLELMQYLPQHTIETYRQQQQQQHQHLLQKQTSIQSPSSYGNSSPPLNKMNSMNKLPSVSQLINPQQRNALTPTTIPDGMGANIPMMGTHMPMAGDMNGLSPTQALPPPLSMPSTSHCTPPPPYPTDCSIVSFLARLGCSSCLDYFTTQGLTTIYQIEHYSMDDLASLKIPEQF | 4
TAp63α (human TP63), wild type (natural protein, UniProt Q9H3D4-1 1-680, looked up, human p63, isoform TAp63α; variants are numbered on NM_003722.5; also called WT TAp63α; source: SAOS-2, transfected (pcDNA3.1-TP63), MG132-treated, in lysate) MNFETSRCATLQYCPDPYIQRFVETPAHFSWKESYYRSTMSQSTQTNEFLSPEVFQHIWDFLEQPICSVQPIDLNFVDEPSEDGATNKIEISMDCIRMQDSDLSDPMWPQYTNLGLLNSMDQQIQNGSSSTSPYNTDHAQNSVTAPSPYAQPSSTFDALSPSPAIPSNTDYPGPHSFDVSFQQSSTAKSATWTYSTELKKLYCQIAKTCPIQIKVMTPPPQGAVIRAMPVYKKAEHVTEVVKRCPNHELSREFNEGQIAPPSHLIRVEGNSHAQYVEDPITGRQSVLVPYEPPQVGTEFTTVLYNFMCNSSCVGGMNRRPILIIVTLETRDGQVLGRRCFEARICACPGRDRKADEDSIRKQQVSDSTKNGDGTKRPFRQNTHGIQMTSIKKRRSPDDELLYLPVRGRETYEMLLKIKESLELMQYLPQHTIETYRQQQQQQHQHLLQKQTSIQSPSSYGNSSPPLNKMNSMNKLPSVSQLINPQQRNALTPTTIPDGMGANIPMMGTHMPMAGDMNGLSPTQALPPPLSMPSTSHCTPPPPYPTDCSIVSFLARLGCSSCLDYFTTQGLTTIYQIEHYSMDDLASLKIPEQFRHAIWKGILDHRQLHEFSSPSHLLRTPSSASTVSVGSSETRGERVIDAVRFTLRQTISFPPRDEWNDFNFDMDARRNKQQRIKEEGE | 2
TAp63α p.R643Q (natural protein, human, UniProt Q9H3D4-1 1-680, looked up, Variant found in a patient with POI; source: SAOS-2, transfected, MG132-treated, in lysate) MNFETSRCATLQYCPDPYIQRFVETPAHFSWKESYYRSTMSQSTQTNEFLSPEVFQHIWDFLEQPICSVQPIDLNFVDEPSEDGATNKIEISMDCIRMQDSDLSDPMWPQYTNLGLLNSMDQQIQNGSSSTSPYNTDHAQNSVTAPSPYAQPSSTFDALSPSPAIPSNTDYPGPHSFDVSFQQSSTAKSATWTYSTELKKLYCQIAKTCPIQIKVMTPPPQGAVIRAMPVYKKAEHVTEVVKRCPNHELSREFNEGQIAPPSHLIRVEGNSHAQYVEDPITGRQSVLVPYEPPQVGTEFTTVLYNFMCNSSCVGGMNRRPILIIVTLETRDGQVLGRRCFEARICACPGRDRKADEDSIRKQQVSDSTKNGDGTKRPFRQNTHGIQMTSIKKRRSPDDELLYLPVRGRETYEMLLKIKESLELMQYLPQHTIETYRQQQQQQHQHLLQKQTSIQSPSSYGNSSPPLNKMNSMNKLPSVSQLINPQQRNALTPTTIPDGMGANIPMMGTHMPMAGDMNGLSPTQALPPPLSMPSTSHCTPPPPYPTDCSIVSFLARLGCSSCLDYFTTQGLTTIYQIEHYSMDDLASLKIPEQFRHAIWKGILDHRQLHEFSSPSHLLRTPSSASTVSVGSSETRGERVIDAVQFTLRQTISFPPRDEWNDFNFDMDARRNKQQRIKEEGE | 4
TAp63α p.L646P (natural protein, human, UniProt Q9H3D4-1 1-680, looked up, Variant found in a patient with POI; source: SAOS-2, transfected, MG132-treated, in lysate) MNFETSRCATLQYCPDPYIQRFVETPAHFSWKESYYRSTMSQSTQTNEFLSPEVFQHIWDFLEQPICSVQPIDLNFVDEPSEDGATNKIEISMDCIRMQDSDLSDPMWPQYTNLGLLNSMDQQIQNGSSSTSPYNTDHAQNSVTAPSPYAQPSSTFDALSPSPAIPSNTDYPGPHSFDVSFQQSSTAKSATWTYSTELKKLYCQIAKTCPIQIKVMTPPPQGAVIRAMPVYKKAEHVTEVVKRCPNHELSREFNEGQIAPPSHLIRVEGNSHAQYVEDPITGRQSVLVPYEPPQVGTEFTTVLYNFMCNSSCVGGMNRRPILIIVTLETRDGQVLGRRCFEARICACPGRDRKADEDSIRKQQVSDSTKNGDGTKRPFRQNTHGIQMTSIKKRRSPDDELLYLPVRGRETYEMLLKIKESLELMQYLPQHTIETYRQQQQQQHQHLLQKQTSIQSPSSYGNSSPPLNKMNSMNKLPSVSQLINPQQRNALTPTTIPDGMGANIPMMGTHMPMAGDMNGLSPTQALPPPLSMPSTSHCTPPPPYPTDCSIVSFLARLGCSSCLDYFTTQGLTTIYQIEHYSMDDLASLKIPEQFRHAIWKGILDHRQLHEFSSPSHLLRTPSSASTVSVGSSETRGERVIDAVRFTPRQTISFPPRDEWNDFNFDMDARRNKQQRIKEEGE | 4
TAp63α p.R655Q (natural protein, human, UniProt Q9H3D4-1 1-680, looked up, Variant found in a patient with POI; source: SAOS-2, transfected, MG132-treated, in lysate) MNFETSRCATLQYCPDPYIQRFVETPAHFSWKESYYRSTMSQSTQTNEFLSPEVFQHIWDFLEQPICSVQPIDLNFVDEPSEDGATNKIEISMDCIRMQDSDLSDPMWPQYTNLGLLNSMDQQIQNGSSSTSPYNTDHAQNSVTAPSPYAQPSSTFDALSPSPAIPSNTDYPGPHSFDVSFQQSSTAKSATWTYSTELKKLYCQIAKTCPIQIKVMTPPPQGAVIRAMPVYKKAEHVTEVVKRCPNHELSREFNEGQIAPPSHLIRVEGNSHAQYVEDPITGRQSVLVPYEPPQVGTEFTTVLYNFMCNSSCVGGMNRRPILIIVTLETRDGQVLGRRCFEARICACPGRDRKADEDSIRKQQVSDSTKNGDGTKRPFRQNTHGIQMTSIKKRRSPDDELLYLPVRGRETYEMLLKIKESLELMQYLPQHTIETYRQQQQQQHQHLLQKQTSIQSPSSYGNSSPPLNKMNSMNKLPSVSQLINPQQRNALTPTTIPDGMGANIPMMGTHMPMAGDMNGLSPTQALPPPLSMPSTSHCTPPPPYPTDCSIVSFLARLGCSSCLDYFTTQGLTTIYQIEHYSMDDLASLKIPEQFRHAIWKGILDHRQLHEFSSPSHLLRTPSSASTVSVGSSETRGERVIDAVRFTLRQTISFPPQDEWNDFNFDMDARRNKQQRIKEEGE | 4 and 2
TAp63α p.T567I (natural protein, human, UniProt Q9H3D4-1 1-680, looked up, human TAp63α with the patient variant p.T567I (SAM domain), numbered on NM_003722.5; made from pcDNA3.1-TP63 by site-directed mutagenesis; Variant found in a patient with POI; source: SAOS-2, transfected, MG132-treated, in lysate) MNFETSRCATLQYCPDPYIQRFVETPAHFSWKESYYRSTMSQSTQTNEFLSPEVFQHIWDFLEQPICSVQPIDLNFVDEPSEDGATNKIEISMDCIRMQDSDLSDPMWPQYTNLGLLNSMDQQIQNGSSSTSPYNTDHAQNSVTAPSPYAQPSSTFDALSPSPAIPSNTDYPGPHSFDVSFQQSSTAKSATWTYSTELKKLYCQIAKTCPIQIKVMTPPPQGAVIRAMPVYKKAEHVTEVVKRCPNHELSREFNEGQIAPPSHLIRVEGNSHAQYVEDPITGRQSVLVPYEPPQVGTEFTTVLYNFMCNSSCVGGMNRRPILIIVTLETRDGQVLGRRCFEARICACPGRDRKADEDSIRKQQVSDSTKNGDGTKRPFRQNTHGIQMTSIKKRRSPDDELLYLPVRGRETYEMLLKIKESLELMQYLPQHTIETYRQQQQQQHQHLLQKQTSIQSPSSYGNSSPPLNKMNSMNKLPSVSQLINPQQRNALTPTTIPDGMGANIPMMGTHMPMAGDMNGLSPTQALPPPLSMPSTSHCTPPPPYPTDCSIVSFLARLGCSSCLDYFTIQGLTTIYQIEHYSMDDLASLKIPEQFRHAIWKGILDHRQLHEFSSPSHLLRTPSSASTVSVGSSETRGERVIDAVRFTLRQTISFPPRDEWNDFNFDMDARRNKQQRIKEEGE | 2
TAp63α p.S285N (natural protein, human, UniProt Q9H3D4-1 1-680, looked up, made from pcDNA3.1-TP63 by site-directed mutagenesis; Variant found in a patient with POI; source: SAOS-2, transfected, MG132-treated, in lysate) MNFETSRCATLQYCPDPYIQRFVETPAHFSWKESYYRSTMSQSTQTNEFLSPEVFQHIWDFLEQPICSVQPIDLNFVDEPSEDGATNKIEISMDCIRMQDSDLSDPMWPQYTNLGLLNSMDQQIQNGSSSTSPYNTDHAQNSVTAPSPYAQPSSTFDALSPSPAIPSNTDYPGPHSFDVSFQQSSTAKSATWTYSTELKKLYCQIAKTCPIQIKVMTPPPQGAVIRAMPVYKKAEHVTEVVKRCPNHELSREFNEGQIAPPSHLIRVEGNSHAQYVEDPITGRQNVLVPYEPPQVGTEFTTVLYNFMCNSSCVGGMNRRPILIIVTLETRDGQVLGRRCFEARICACPGRDRKADEDSIRKQQVSDSTKNGDGTKRPFRQNTHGIQMTSIKKRRSPDDELLYLPVRGRETYEMLLKIKESLELMQYLPQHTIETYRQQQQQQHQHLLQKQTSIQSPSSYGNSSPPLNKMNSMNKLPSVSQLINPQQRNALTPTTIPDGMGANIPMMGTHMPMAGDMNGLSPTQALPPPLSMPSTSHCTPPPPYPTDCSIVSFLARLGCSSCLDYFTTQGLTTIYQIEHYSMDDLASLKIPEQFRHAIWKGILDHRQLHEFSSPSHLLRTPSSASTVSVGSSETRGERVIDAVRFTLRQTISFPPRDEWNDFNFDMDARRNKQQRIKEEGE | 2
TAp63α p.T538A (natural protein, human, UniProt Q9H3D4-1 1-680, looked up, human TAp63α with the patient variant p.T538A, numbered on NM_003722.5; made from pcDNA3.1-TP63 by site-directed mutagenesis; Variant found in a patient with POI; source: SAOS-2, transfected, MG132-treated, in lysate) MNFETSRCATLQYCPDPYIQRFVETPAHFSWKESYYRSTMSQSTQTNEFLSPEVFQHIWDFLEQPICSVQPIDLNFVDEPSEDGATNKIEISMDCIRMQDSDLSDPMWPQYTNLGLLNSMDQQIQNGSSSTSPYNTDHAQNSVTAPSPYAQPSSTFDALSPSPAIPSNTDYPGPHSFDVSFQQSSTAKSATWTYSTELKKLYCQIAKTCPIQIKVMTPPPQGAVIRAMPVYKKAEHVTEVVKRCPNHELSREFNEGQIAPPSHLIRVEGNSHAQYVEDPITGRQSVLVPYEPPQVGTEFTTVLYNFMCNSSCVGGMNRRPILIIVTLETRDGQVLGRRCFEARICACPGRDRKADEDSIRKQQVSDSTKNGDGTKRPFRQNTHGIQMTSIKKRRSPDDELLYLPVRGRETYEMLLKIKESLELMQYLPQHTIETYRQQQQQQHQHLLQKQTSIQSPSSYGNSSPPLNKMNSMNKLPSVSQLINPQQRNALTPTTIPDGMGANIPMMGTHMPMAGDMNGLSPTQALPPPLSMPSTSHCAPPPPYPTDCSIVSFLARLGCSSCLDYFTTQGLTTIYQIEHYSMDDLASLKIPEQFRHAIWKGILDHRQLHEFSSPSHLLRTPSSASTVSVGSSETRGERVIDAVRFTLRQTISFPPRDEWNDFNFDMDARRNKQQRIKEEGE | 2
